Measurements reported in article PMC10073219.

Biological target: Drosophila melanogaster TRPA1, dTRPA1-A isoform (Drosophila melanogaster)
Assay: cryo-EM structure; purified dTRPA1-A in 25 mM HEPES pH 7.4, 150 mM NaCl, 0.02% GDN; grids prepared at 8 °C; two conformations (state-1, 3.2 Å; state-2, 3.0 Å) from the same sample

For “Drosophila melanogaster TRPA1, dTRPA1-A isoform (natural protein)”, the stoichiometry N was 4.
